Test results from patent publication US20220259593A1, “CONTROL OF MAMMALIAN GENE DOSAGE USING CRISPR” (The Regents of the University of California, priority 2019, published 2022).

System: K562 CRISPRi cells
Test: Constant region variant library pooled growth screen, K562
Type: cell-based, human
Conditions: sgRNA constant region variants
Procedure, shortened: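 Pooled library transduced into K562 CRISPRi cells in duplicate, puromycin-selected, grown at >2000× coverage and sampled after 4 to 8 days. Phenotypes per targeting sequence:constant region pair were normalized to the unmodified-scaffold pairing to give relative activity.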

[1] = activity relative to the unmodified constant region cr995
[2] = activity relative to the original, un-modified constant region cr995

Molecule | Mean relative activity [1] | Mean relative activity [2]
cr276 (nucleic acid, listed as DNA, chemistry not fully specified) guide: GTTTAAGAGCTAAGCTGGAAACAGCATAGCAAGTTTAAATAAGGATATTCCGTTATCAGCTTGAAAAAGCGGCACCCAGTGGGTGCT | 0.2143 | 
cr447 (nucleic acid, listed as DNA, chemistry not fully specified) guide: GTTTAAGAGCTAAGCTGGAAACAGCATAGCAAGCTTAAATAAGGCTAGTCCGTTATCAACTTGAAAAAGTGGCACCAAGTTGGTGCT | 0.1616 | 
cr476 (nucleic acid, listed as DNA, chemistry not fully specified) guide: GTTTAAGAGCTAAGCTGGAAACAGCATAGCAAGTTTAAATAAGGCTAGTCCGTTATCAACTTGAAAAAGTGCGACCGAGTCGGTCGT |  | 1.039
cr029 (nucleic acid, listed as DNA, chemistry not fully specified) guide: GTTTCAGGGCTAAGCTGGAAACAGCATAGCAAGTTTAAATAAGGCTAGTCCGTTATCAACTTGAAAAAGTGGCACCGAGTCGGTGCT | 0.1663 | 
cr047 (nucleic acid, listed as DNA, chemistry not fully specified) guide: GTTTTAGTGCTAAGCTGGAAACAGCATAGCAAGTTTAAATAAGGCTAGTCCGTTATCAACTTGAAAAAGTGGCACCGAGTCGGTGCT | 0.1686 | 
cr979 (nucleic acid, listed as DNA, chemistry not fully specified) guide: GTTTAAGAGCTAAGCTGGAAACAGCATAGCAAGTTTAAATAAGGCTAGTCCGGTATCTACTTGAAAAAGTGGCACCGAGTCGGTGCT | 0.1765 | 
cr605 (nucleic acid, listed as DNA, chemistry not fully specified) guide: GTTTAAGAGCTAAGCTGGAAACAGCATAGCAAGTTTAAATAAGGATATTCCGTTATCAACTTGAAAAAGTGGCACCCAGTGGGTGCT | 0.1839 | 
cr452 (nucleic acid, listed as DNA, chemistry not fully specified) guide: GTTTAAGAGCTAAGCTGGAAACAGCATAGCAAATTTAAATAAGGCTAGTCCGTTATAAACTTGAAAAAGTGGCACCGAGTCGGTGCT | 0.1813 | 
cr760 (nucleic acid, listed as DNA, chemistry not fully specified) guide: GTTTAAGAGCTAAGCTGGAAACAGCATAGCAGGTTTAAATCAGGCTAGTCCGTTATCAACTTGATAAAGTGGCACCGAGTCGGTGCT | 0.1909 | 
cr854 (nucleic acid, listed as DNA, chemistry not fully specified) guide: GTTTAAGAGCTAAGCTGGAAACAGCATAGCAAGTTTAAATAAGGCTAGTCCGTTATCAACTTGAAAAAGTGGCAGGGAGTCCCTGCT | 0.2099 | 
cr832 (nucleic acid, listed as DNA, chemistry not fully specified) guide: GTTTAAGAGCTAAGCTGGAAACAGCATAGCAAGTTTAAATAAGGCTAGTCCGTTATCAGCTTGAAAAAGCGGTGCCGAGTCGGCACT |  | 1.039
cr347 (nucleic acid, listed as DNA, chemistry not fully specified) guide: GTTTAAGAGCTAAGCTGGAAACAGCATAGCAAGCTTAAATAAGCCTAGTGCGTTATCAACTTGAAAAAGTGGCACCGAGTCGGTGCT | 0.1915 | 
cr618 (nucleic acid, listed as DNA, chemistry not fully specified) guide: GTTTAAGAGCTAAGCTGGAAACAGCATAGCAAGTTTAAGTAAGGCTAGTCCGTTATCAACTTGAAAAAGTGGCACCGAGTCGGTGCT | 0.1571 | 
cr732 (nucleic acid, listed as DNA, chemistry not fully specified) guide: GTTTAAGAGCTAAGCTGGAAACAGCATAGCAAGTTTAAATAGGGCTAGTCCGGTATCAACTTGAAAAAGTCGCACCGAGTCGGTGCT | 0.1926 | 
cr194 (nucleic acid, listed as DNA, chemistry not fully specified) guide: GTTTAAGAGCTAAGCTGGAAACAGCATAGCAAGTTTAAATAAGGCTAGTACGTTATCAACTTGAAAAAGTGGCACCGAGTCGGTGCT | 0.2113 | 
cr011 (nucleic acid, listed as DNA, chemistry not fully specified) guide: GTTCAAGAGCTAAGCTGGAAACAGCATAGCAAGTTTAAATAAGGCTAGTCCGTTATCAACTTGAAAAAGTGGCACCGAGTCGGTGCT | 0.2088 | 
cr218 (nucleic acid, listed as DNA, chemistry not fully specified) guide: GTTTAAGAGCTAAGCTGGAAACAGCATAGCAATTTTAAATAAGGCTAGTCCGTTATCAACTTAAACAAGTGGCACCGAGTCGGTGCT | 0.207 | 
cr373 (nucleic acid, listed as DNA, chemistry not fully specified) guide: GTTTAAGAGCTAAGCTGGAAACAGCATAGCAAGCTTAAATAAGGCTAGTCCGTTATCAACTTGAAAAAGTGGCAGCGAGTCGCTGCT | 0.1993 | 
cr230 (nucleic acid, listed as DNA, chemistry not fully specified) guide: GTTTAAGAGCTAAGCTGGAAACAGCATAACAAGTTTAAATAAGGCTAGTCCATTATCAACTTGAACAAGTGGCACCGAGTCGGTGCT | 0.1598 | 
cr311 (nucleic acid, listed as DNA, chemistry not fully specified) guide: GTTTAAGAGCTAAGCTGGAAACAGCATAGCAAGTTTAAATAAGGCTTGTCCGTTATATACTTGAAAAAGTGGCACCGAGTCGGTGCT | 0.179 | 
cr812 (nucleic acid, listed as DNA, chemistry not fully specified) guide: GTTTAAGAGCTAAGCTGGAAACAGCATAGCAAGTTTAAATAAGGCTACTCCGTTATCAACTTGAAAAAGTGGCACCGAGTCGGTGCT | 0.1766 | 
cr826 (nucleic acid, listed as DNA, chemistry not fully specified) guide: GTTTAAGAGCTAAGCTGGAAACAGCATAGCAATTTTAAATAAGGCTAGCCCGTTTTCAACTTGAAAAAGTGGCACCGAGTCGGTGCT | 0.1633 | 
cr900 (nucleic acid, listed as DNA, chemistry not fully specified) guide: GTTTAAGAGCTAAGCTGGAAACAGCATAGCAAGTTGAAATAAGGCTAGTCCGTTATCAACTTGAAAAAGTGGCACCGAGTCGGTGCT | 0.1846 | 
cr185 (nucleic acid, listed as DNA, chemistry not fully specified) guide: GTTTAAGAGCTAAGCTGGAAACAGCATAGCAAGTTTAAATAAGGCTAGTCCGTTATCAACTTGAAAAAGTGGCACCGAGTAGGTGCT | 0.1755 | 
cr294 (nucleic acid, listed as DNA, chemistry not fully specified) guide: GTTTAAGAGCTAAGCTGGAAACAGCATAGCAAGTTTAAATAAGAATATTTCGTTATCAACTTGAAAAAGTGGCACCGAGTCGGTGCT | 0.1883 | 
cr853 (nucleic acid, listed as DNA, chemistry not fully specified) guide: GTTTAAGAGCTAAGCTGGAAACAGCATAGCAATTTTAAATAAGGCGAGTCCGTTATCAACTTGAAAAAGTGGCACCGAGTCGGTGCT | 0.2121 | 
cr429 (nucleic acid, listed as DNA, chemistry not fully specified) guide: GTTTAAGAGCTAAGCTGGAAACAGCATAGCAAGTTTAAATAAGAATATTTCGTTATCAACTTGAAAAAGTGGCAACGAGTCGTTGCT | 0.196 | 
cr544 (nucleic acid, listed as DNA, chemistry not fully specified) guide: GTTTAAGAGCTAAGCTGGAAACAGCATAGCAACTTTAAATAAGGCTAGTCCGTTATCAACTCGAAAGAGTGGCACCGAGTCGGTGCT | 0.1605 | 
cr090 (nucleic acid, listed as DNA, chemistry not fully specified) guide: GTTTTATAGCTAAGCTGGAAACAGCATAGCAAGTTTAAATAAGGCTAGTCCGTTATCAACTTGAAAAAGTGGCACCGAGTCGGTGCT | 0.1865 | 
cr180 (nucleic acid, listed as DNA, chemistry not fully specified) guide: GTTTAAGAGCTAAGCTGGAAACAGCATAGCAAGTTTAAATCAGGCTAGTCCGTTATCAACTTGAAAAAGTGGCACCGAGCCGGTGCT | 0.208 | 
